These results are taken from patent publication US20150152150A1.

human Y4 receptor (human), sequence (P50391 whole entry): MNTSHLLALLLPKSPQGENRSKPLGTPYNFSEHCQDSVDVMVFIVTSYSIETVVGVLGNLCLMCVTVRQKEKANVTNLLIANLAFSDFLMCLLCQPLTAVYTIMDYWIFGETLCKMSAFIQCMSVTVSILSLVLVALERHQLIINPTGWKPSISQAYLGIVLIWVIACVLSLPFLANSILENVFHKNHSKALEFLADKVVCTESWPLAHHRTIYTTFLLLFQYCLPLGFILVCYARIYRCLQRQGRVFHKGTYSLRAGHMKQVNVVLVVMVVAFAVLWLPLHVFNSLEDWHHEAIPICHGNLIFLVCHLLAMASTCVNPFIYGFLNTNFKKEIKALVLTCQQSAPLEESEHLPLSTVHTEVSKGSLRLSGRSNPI

In the first assay the target is human Y1 receptor (human) (UniProt P25929). In words: cell-based or functional assay.
human Y1 receptor (human), sequence (P25929 whole entry): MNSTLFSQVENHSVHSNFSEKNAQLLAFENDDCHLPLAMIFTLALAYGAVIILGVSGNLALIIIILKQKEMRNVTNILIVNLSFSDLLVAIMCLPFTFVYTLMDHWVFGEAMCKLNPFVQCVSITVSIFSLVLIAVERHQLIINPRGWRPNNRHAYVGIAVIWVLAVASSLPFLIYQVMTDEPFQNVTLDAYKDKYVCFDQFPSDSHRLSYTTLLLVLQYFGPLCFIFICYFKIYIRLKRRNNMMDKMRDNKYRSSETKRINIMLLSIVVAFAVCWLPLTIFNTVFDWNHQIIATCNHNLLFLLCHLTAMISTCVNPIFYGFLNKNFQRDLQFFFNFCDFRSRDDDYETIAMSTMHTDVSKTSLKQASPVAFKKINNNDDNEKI
“4-N{alpha}-(3-Methylbutanoyl)-7-N{Epsilon}-[2-[2-[2-[[2-[2-[2-[[2-[2-[2-[[(4S)-4-carboxy-4-(16-sulfohexadecanoylamino)butanoyl]amino]ethoxy]ethoxy]acetyl]-amino]ethoxy]ethoxy]acetyl]amino]ethoxy]ethoxy]acetyl]-[Arg4,Lys7,Gln18,Trp30,NMeArg35]hPYY(4-36) (peptide)” came in with an EC50, Actone functional potency assay of over 1000 nM.
In the case of “4-N{alpha}-(3-Methylbutanoyl)-7-N{Epsilon}-[2-[2-[2-[[2-[2-[2-[[(4S)-4-carboxy-4-(14-carboxy-tetracanoylamino)butanoyl]amino]ethoxy]ethoxy]acetyl]]amino]ethoxy]-ethoxy]acetyl]-[Arg4,Lys7,Gln18,Trp30,NMeArg35]hPYY(4-36) (peptide)”, the EC50, Actone functional potency assay was over 1000 nM.
In turn, “4-N{alpha}-(3-Methylbutanoyl)-7-N{Epsilon}-[2-[2-[2-[[2-[2-[2-[[(4S)-4-carboxy-4-(14-sulfotetradecanoylamino)butanoyl]amino]ethoxy]ethoxy]acetyl]]amino]ethoxy]-ethoxy]acetyl]-[Arg4,Lys7,Gln18,Trp30,NMeArg35]hPYY(4-36) (peptide)” yielded an EC50, Actone functional potency assay of over 1000 nM.
On the same count and under the same terms, for “4-N{alpha}-(3-Methylbutanoyl)-7-N{Epsilon}-[2-[2-[2-[[2-[2-[2-[[(4S)-4-carboxy-4-(15-carboxypentadecanoylamino)butanoyl]amino]ethoxy]ethoxy]acetyl]amino]-ethoxy]ethoxy]acetyl]-[Arg4,Lys7,Gln18,Trp30,NMeArg35]hPYY(4-36) (peptide)” the value was over 1000 nM; for “4-N{alpha}-(3-Methylbutanoyl)-7-N{Epsilon}-[2-[2-[2-[[2-[2-[2-[[(4S)-4-carboxy-4-(16-carboxy-hexadecanoylamino)butanoyl]amino]ethoxy]ethoxy]acetyl]]amino]ethoxy]-ethoxy]acetyl]-[Arg4,Lys7,Gln18,Trp30,NMeArg35]hPYY(4-36) (peptide)”, over 1000 nM.
Same read-out and setting: the value for “4-N{alpha}-(3-Methylbutanoyl)-7-N{Epsilon}-[2-[2-[2-[[2-[2-[2-[[(4S)-4-carboxy-4-(16-sulfohexadecanoylamino)-butanoyl]amino]ethoxy]ethoxy]acetyl]amino]ethoxy]-ethoxy]acetyl]-[Arg4,Lys7,Gln18,Trp30,NMeArg35]hPYY(4-36) (peptide)” was over 1000 nM; that for “4-N{alpha}-(3-Methylbutanoyl)-7-N{Epsilon}-[2-[2-[2-[[2-[2-[2-[[(4S)-4-carboxy-4-(16-sulfohexadecanoylamino)butanoyl]amino]ethoxy]ethoxy]acetyl]amino]-ethoxy]ethoxy]acetyl]-[Lys7,Gln18,Trp30,NMeArg35]hPYY(4-36) (peptide)” was over 1000 nM; that for “4-N{alpha}-(3-Methylbutanoyl)-7-N{Epsilon}-[2-[2-[2-[[2-[2-[2-[[(4S)-4-carboxy-4-(17-carboxyheptadecanoylamino)butanoyl]amino]ethoxy]ethoxy]acetyl]amino]ethoxy]-ethoxy]acetyl]-[Arg4,Lys7,Gln18,Trp30,NMeArg35]hPYY(4-36) (peptide)” was over 1000 nM.
On the same count and under the same terms, the value for “4-N{alpha}-(3-Methylbutanoyl)-7-N{Epsilon}-[4-[3-[2-[2-[3-[[4-[3-[2-[2-[3-[[(4S)-4-carboxy-4-(16-sulfohexadecanoylamino)butanoyl]amino]propoxy]ethoxy]-ethoxy]propylamino]-4-oxobutanoyl]amino]propoxy]ethoxy]ethoxy]propylamino]-4-oxobutanoyl]-[Arg4,Lys7,Gln18,Trp30,NMeArg35]hPYY(4-36) (peptide)” was over 1000 nM; that for “4-N{alpha}-(3-Methylbutanoyl)-7-N{Epsilon}-[4-[3-[2-[2-[3-[[(4S)-4-carboxy-4-(16-sulfohexadecanoylamino)butanoyl]amino]propoxy]ethoxy]ethoxy]propylamino]-4-oxobutanoyl]-[Arg4,Lys7,Gln18,Trp30,NMeArg35]hPYY(4-36) (peptide)” was over 1000 nM; that for “4-N{alpha}-(3-Methylbutanoyl)-7-N{Epsilon}-[(2S)-2-amino-6-[[2-[2-[2-[[(4S)-4-carboxy-4-(16-sulfohexadecanoylamino)butanoyl]amino]ethoxy]ethoxy]acetyl]-amino]hexanoyl]]-[Arg4,Lys7,Gln18,Trp30,NMeArg35]hPYY(4-36) (peptide)” was over 1000 nM.
In turn, “4-N{alpha}-(3-methyl-pentanoyl)-7-N{Epsilon}-[2-[2-[2-[[2-[2-[2-[[(4S)-4-carboxy-4-(16-sulfohexadecanoylamino)butanoyl]amino]ethoxy]ethoxy]acetyl]amino]-ethoxy]ethoxy]acetyl]-[Lys7,Gln18,Trp30,NMeArg35]hPYY(4-36) (peptide)” yielded an EC50, Actone functional potency assay of over 1000 nM.
Same read-out and setting: for “4-N{alpha}-(hexanoyl)-7-N{Epsilon}-[2-[2-[2-[[2-[2-[2-[[(4S)-4-carboxy-4-(16-sulfohexadecanoylamino)butanoyl]amino]ethoxy]ethoxy]acetyl]amino]ethoxy]-ethoxy]acetyl]-[Arg4,Lys7,Gln18,Trp30,NMeArg35]hPYY(4-36) (peptide)” the value was over 1000 nM; for “7-N{Epsilon}-[2-[2-[2-[[2-[2-[2-[[2-[2-[2-[[2-[2-[2-[4-[16-(1H-tetrazol-5-yl)-hexadecanoylsulfamoyl]butanoylamino]ethoxy]ethoxy]acetyl]amino]ethoxy]-ethoxy]acetyl]amino]ethoxy]ethoxy]acetyl]amino]ethoxy]ethoxy]acetyl]-[Lys7,Gln18,Trp30,NMeArg35]hPYY(3-36) (peptide)”, over 1000 nM; for “7-N{Epsilon}-[2-[2-[2-[[2-[2-[2-[[(4S)-4-carboxy-4-(16-sulfohexadecanoylamino)-butanoyl]amino]ethoxy]ethoxy]acetyl]amino]ethoxy]ethoxy]acetyl]-[Arg4,Lys7,Gln18, Trp30,NMeArg35]hPYY(3-36) (peptide)”, over 1000 nM.
The same measure, in the same setting: the value for “7-N{Epsilon}-[2-[2-[2-[[2-[2-[2-[[(4S)-4-carboxy-4-(16-sulfohexadecanoylamino)-butanoyl]amino]ethoxy]ethoxy]acetyl]amino]ethoxy]ethoxy]acetyl]-[Lys7,Gln18, Trp30,NMeArg35]hPYY(3-36) (peptide)” was over 1000 nM.

Another assay has as its target human Y4 receptor (human) (UniProt P50391). The assay is described as follows: cell-based or functional assay.
Take “4-N{alpha}-(3-Methylbutanoyl)-7-N{Epsilon}-[2-[2-[2-[[2-[2-[2-[[(4S)-4-carboxy-4-(16-sulfohexadecanoylamino)-butanoyl]amino]ethoxy]ethoxy]acetyl]amino]ethoxy]-ethoxy]acetyl]-[Arg4,Lys7,D-isoAsp11,Gln18,Trp30,NMeArg35]hPYY(4-36) (peptide)”: the EC50, Actone functional potency assay is over 1000 nM.
The same measure, in the same setting: for “4-N{alpha}-(3-Methylbutanoyl)-7-N{Epsilon}-[2-[2-[2-[[2-[2-[2-[[(4S)-4-carboxy-4-(16-sulfohexadecanoylamino)butanoyl]amino]ethoxy]ethoxy]acetyl]amino]-ethoxy]ethoxy]acetyl]-[Lys7,Gln18,Trp30,NMeArg35]hPYY(4-36) (peptide)” the value was over 1000 nM; for “4-N{alpha}-(3-Methylbutanoyl)-7-N{Epsilon}-[2-[2-[2-[[2-[2-[2-[[(4S)-4-carboxy-4-[[(4S)-4-carboxy-4-(16-sulfohexadecanoylamino)butanoyl]amino]butanoyl]amino]-ethoxy]ethoxy]acetyl]amino]ethoxy]ethoxy]acetyl]-[Lys7,Gln18,Trp30,NMeArg35] hPYY(4-36) (peptide)”, over 1000 nM.
